Data on two molecules can be found in US10184116B2, “Chimeric genes for the catalytic protein of Oplophorus luciferase and use thereof” (JNC CORPORATION, priority 2014, dated 2019).

A short description of series [1]: Luminescence activity of ZZ-fused WNanoKAZ mutants in crude enzyme solution (Example 10). The class given is biochemical. The note with it: coelenterazine substrate; for Relative luminescence activity (Imax): ZZ-fused, pCold-ZZ-P- vector in E. coli, KAZ = 1.0; for fold higher activity than native KAZ / fold higher activity than the relative activity 7.4 of dnKAZ: Imax. On the procedure: In order to express ZZ-fused KAZ mutants in E. coli, the recombinant plasmid produced in EXAMPLE 8 and pCold-ZZ-P-WNanoKAZ produced in EXAMPLE 1 were used. The crude enzyme solution was prepared in a manner similar to EXAMPLE 2, using the E. coli BL21 strain (Novagen, Madison, Wis.) as a host cell. Then, 5 μL of the crude enzyme solution obtained was subjected to SDS-PAGE analysis to confirm the protein expression in all mutants. In FIG. 1, M and 1 to 8 represent as follows. M: molecular weight size markers; 1: ZZ-P-KAZ; 2: ZZ-P-WNanoKAZ; 3: ZZ-P-WNanoKAZ-V90I; 4: ZZ-P-WNanoKAZ-E115P; 5: ZZ-P-WNanoKAZ-K124Q; 6: ZZ-P-WNanoKAZ-I138Y; 7: ZZ-P-WNanoKAZ-R166N; 8: ZZ-P-dnKAZ. It was confirmed from FIG. 1 that all mutants were expressed.
(§1) DTT was added to the crude enzyme solution obtained in EXAMPLE 9 at a final concentration of 1 mM, and then allowed to stand in an ice-water bath over 8 hours or more. After 1 μL of the crude enzyme solution was added to 100 μL of 30 mM Tris-HCl (pH 7.6)-10 mM EDTA (Wako Pure Chemical Industries, Ltd.) containing 1 μg of coelenterazine (manufactured by JNC Corp.), a luminescence reaction was started. Luminescence activity was measured for 60 seconds using a luminometer (manufactured by Atto Inc.: AB2200). The maximum intensity of luminescence (Imax) was given as a relative luminescence activity (rlu).

In series [2] the test system is CHO-K1 cells. Briefly: Luminescence activity of KAZ mutants expressed in animal cultured cells, culture medium and cell extract (Example 6). The class given is cell-based, Chinese hamster. Particulars: pcDNA3-GLsp- vector in CHO-K1, coelenterazine substrate. On the procedure: (§2) Chinese hamster ovary cell line CHO-K1 was cultured in Ham's F-12 medium (manufactured by Wako Pure Chemical Industries, Ltd.) supplemented with 10% (v/v) fetal bovine serum (manufactured by Biowest Inc.). The CHO-K1 cells were seeded in a 6-well plate in 1×10^5 cells/well/2 mL medium (n=2) and cultured in an incubator at 37° C. in 5% (v/v) CO2. After 24 hours, the purified recombinant plasmid was transfected to CHO-K1 cells using a FuGene HD transfection kit (manufactured by Promega Corp.) and the cells were used for subsequent experiment. Specifically, 1 μg of the recombinant plasmid, 0.1 μg of the internal standard vector pGL4.13 [Luc2/sv40] and 3 μL of FuGene HD were added to 100 μL of the medium and allowed to stand at room temperature for 15 minutes. Subsequently, 100 μL of the DNA-FuGene complex solution was added to the cells in the 6-well plate. After incubation for 46 hours, the culture medium was collected. On the other hand, the KAZ mutant expressed in the cells was washed 3 times with 3 mL of 1×PBS, then suspended in 1 mL of 1×PBS and disrupted by sonication on ice. The resultant cell extract of WNanoKAZ was used as the enzyme solution.
(§3) After adding 5 μL of the culture medium and cell extract obtained in EXAMPLE 5 to 100 μL of 30 mM Tris-HCl (pH 7.6)-10 mM EDTA (Wako Pure Chemical Industries, Ltd.) containing 1 μg of coelenterazine (manufactured by JNC Corp.), a luminescence reaction was started. Luminescence activity was measured for 60 seconds using a luminometer (manufactured by Atto Inc.: AB2200). The maximum intensity of luminescence (Imax) was given as a percentage (%).

Series [3] is described as follows: Luminescence activity of WNanoKAZ in crude enzyme solution (Example 3). The class given is biochemical. On the procedure: In order to express WNanoKAZ in E. coli, pCold-ZZ-P-WNanoKAZ obtained in EXAMPLE 1 was used. The E. coli BL21 strain (Novagen, Madison, Wis.) was used as a host cell. The BL21 strain carrying the recombinant plasmid was incubated in 5 mL of Luria-Bertani medium (hereinafter designated as LB medium) containing ampicillin (50 μg/mL) at 37° C. for 17 hours. The seed culture of 0.1 mL was inoculated to 10 mL of LB medium and incubated for 3 hours, followed by cooling in freezing water for 1 hour. IPTG was added to the culture medium at a final concentration of 0.1 mM, followed by incubation at 15° C. for further 19 hours. After completion of the incubation, 1 mL of the culture medium was collected by centrifugation at 10,000 rpm for 2 minutes. The collected E. coli cells were suspended in 0.5 mL of 30 mM Tris-HCl (pH 7.6)-10 mM EDTA. The cells were disrupted by sonication for 3 seconds using a Branson Model 250 Sonifire (Danbury, Conn.) to give a crude enzyme solution. Then, DTT was added to the crude enzyme solution at a final concentration of 1 mM. After the mixture was allowed to stand in freezing water over 8 hours or more, the luminescence activity was measured.
1 μl of the crude enzyme solution obtained in EXAMPLE 2 was added to 100 μl of 30 mM Trix-HCl (pH 7.6)-10 mM EDTA (Wako Pure Chemical Industries, Ltd.) containing 1 μg of coelenterazine (manufactured by JINC Corp.), luminescence reaction was started. Luminescence activity was measured for 60 seconds using a luminometer (manufactured by Atto Inc.: AB2200); the maximum intensity of luminescence (Imax) was given as a relative luminescence activity.

The test system of series [4] is CHO-K1 cells. Nature of the series: Luminescence activity of WNanoKAZ mutants expressed by secretory expression vectors in animal culture cells (Example 13). Format: cell-based, Chinese hamster. The note with it: pcDNA3-GLsp- secretory vector, coelenterazine substrate. On the procedure:
as §2, §3
The recombinant plasmid obtained in EXAMPLE 12 or 4 was purified in a manner similar to EXAMPLE 5 and dissolved in sterile water. The firefly luciferase vector (pGL4.13 [Luc2/sv40]: manufactured by Promega Corp.) was similarly prepared and used as an internal standard.
Culture medium containing two amino acid-substituted KAZ mutants and three amino acid-substituted KAZ mutants and cell extracts of the KAZ mutants as the enzyme solutions were prepared by the same procedure as in EXAMPLE 9.
The resultant culture medium and cell extracts were used to measure luminescence activity as in EXAMPLE 6.

Series [5] can be described thus: Substrate specificity of WNanoKAZ mutants, crude enzyme solution (Example 11). The class given is biochemical. Particulars: for Relative luminescence activity, 6h-CTZ, Imax / Relative luminescence activity, 6h-CTZ, Int.: substrate 6h-CTZ; for Relative luminescence activity, 6h-f-CTZ, Imax / Relative luminescence activity, 6h-f-CTZ, Int.: substrate 6h-f-CTZ; for Relative luminescence activity, CTZ, Imax / Relative luminescence activity, CTZ, Int.: substrate CTZ. On the procedure: as §1
Each of the coelenterazine analogues used for substrate specificity studies was synthesized by the methods described in publications. Specifically, bis-coelenterazine was synthesized by the method described in Nakamura et al. (1997) Tetrahedron Lett. 38: 6405-6406, furimazine by the method described in Hall et al. (2012) ACS Chem. Biol. […], and, 6h-coelenterazine, f-coelenterazine and 6h-f-coelenterazine by the method described in Inouye et al (2013) Biochem. Biophys. Res. Commun. 437: 23-28. Luminescence activity was measured by the same method as in EXAMPLE 10, using the crude enzyme solution obtained in EXAMPLE 10, in which coelenterazine or its analogue was used as the luminescence substrate.

B1: WNanoKAZ: chimeric protein: positions 1-82 of native KAZ and 83-169 of nanoKAZ; SEQ ID NO: 6; I90V, P115E, Q124K, Y138I, N166R (protein)
chain: FTLADFVGDWQQTAGYNQDQVLEQGGLSSLFQALGVSVTPIQKVVLSGENGLKADIHVIIPYEGLSGFQMGLIEMIFKVVYPVDDHHFKVILHYGTLVIDGVTPNMIDYFGRPYEGIAVFDGKKITVTGTLWNGNKIIDERLINPDGSLLFRVTINGVTGWRLCERILA
notes: chimeric protein: positions 1-82 of native KAZ and 83-169 of nanoKAZ; I90V, P115E, Q124K, Y138I, N166R
As for B1, in series [1], the “Relative luminescence activity (Imax)” value is 64, the “fold higher activity than native KAZ” value was determined as 64 fold and the “fold higher activity than the relative activity 7.4 of dnKAZ” value came to 8.6 fold. Further, the “Relative luminescence activity (%, Imax) Cell extracts” value in the series on CHO-K1 cells [2] (cell extracts) was determined as 22%. For the same molecule, in the series on CHO-K1 cells [2] (culture medium), the “Relative luminescence activity (%, Imax) Culture medium” value was below 0.01%. Besides, in series [3] (coelenterazine used as the substrate, as shown in EXAMPLE 3), the “fold higher activity than that of dnKAZ” value amounted to 64 fold. Also, the “Relative luminescence activity (Imax)” value in series [3] (crude enzyme solution, pCold-ZZ-P- vector in E. coli, coelenterazine substrate, KAZ = 1.0) is given as 64. Moreover, the “fold higher activity than native KAZ” value in series [3] (crude enzyme solution, coelenterazine substrate, Imax) was 64 fold. Besides, in the series on CHO-K1 cells [4], the “Relative luminescence activity (%, Imax) Cell extracts” value was determined as 22% and the “Relative luminescence activity (%, Imax) Culture medium” value is reported as below 0.01%. Also, in series [5], the “Relative luminescence activity, Furimazine, Imax” value is 26; the “Relative luminescence activity, bis-CTZ, Imax” value came to 32; the “Relative luminescence activity, f-CTZ, Imax” value was found to be 48; the “Relative luminescence activity, h-CTZ, Imax” value is 64. In series [5], the “Relative luminescence activity, Furimazine, Int.” value was found to be 29; the “Relative luminescence activity, bis-CTZ, Int.” value was determined as 24; the “Relative luminescence activity, f-CTZ, Int.” value is 32; the “Relative luminescence activity, h-CTZ, Int.” value is 33. In series [5], the “fold higher activity than the other coelenterazine analogues when coelenterazine was used as the substrate” value is 8.6 fold; the “Relative luminescence activity, 6h-CTZ, Imax” value is given as 8.9; the “Relative luminescence activity, 6h-CTZ, Int.” value is recorded as 7.5; the “Relative luminescence activity, 6h-f-CTZ, Imax” value amounted to 41. Further, in series [5], the “Relative luminescence activity, 6h-f-CTZ, Int.” value was determined as 34; the “Relative luminescence activity, CTZ, Imax” value came out at 64; the “Relative luminescence activity, CTZ, Int.” value is 56.

B2: WNanoKAZ-R166N: single amino acid-substituted WNanoKAZ mutant R166N; SEQ ID NO: 16 (protein)
chain: FTLADFVGDWQQTAGYNQDQVLEQGGLSSLFQALGVSVTPIQKVVLSGENGLKADIHVIIPYEGLSGFQMGLIEMIFKVVYPVDDHHFKVILHYGTLVIDGVTPNMIDYFGRPYEGIAVFDGKKITVTGTLWNGNKIIDERLINPDGSLLFRVTINGVTGWRLCENILA
As for B2, in series [1], the “Relative luminescence activity (Imax)” value came out at 32, the “fold higher activity than native KAZ” value worked out at 32 fold and the “fold higher activity than the relative activity 7.4 of dnKAZ” value is reported as 4.3 fold. For the same molecule, in the series on CHO-K1 cells [4], the “Relative luminescence activity (%, Imax) Cell extracts” value is 26% and the “Relative luminescence activity (%, Imax) Culture medium” value is listed as below 0.01%. In series [5], the “Relative luminescence activity, Furimazine, Imax” value came out at 17; the “Relative luminescence activity, bis-CTZ, Imax” value is 17; the “Relative luminescence activity, f-CTZ, Imax” value stood at 38; the “Relative luminescence activity, h-CTZ, Imax” value is 43. Besides, in series [5], the “Relative luminescence activity, Furimazine, Int.” value is recorded as 12; the “Relative luminescence activity, bis-CTZ, Int.” value turned out to be 18; the “Relative luminescence activity, f-CTZ, Int.” value is 27; the “Relative luminescence activity, h-CTZ, Int.” value stood at 28. Also, in series [5], the “fold higher activity than the other coelenterazine analogues when coelenterazine was used as the substrate” value amounted to 4.3 fold; the “Relative luminescence activity, 6h-CTZ, Imax” value came out at 4.6; the “Relative luminescence activity, 6h-CTZ, Int.” value is reported as 6.1; the “Relative luminescence activity, 6h-f-CTZ, Imax” value was found to be 13. In addition, in series [5], the “Relative luminescence activity, 6h-f-CTZ, Int.” value is on record as 8.8; the “Relative luminescence activity, CTZ, Imax” value turned out to be 32; the “Relative luminescence activity, CTZ, Int.” value turned out to be 36.
